Numbering of substitutions follows the chain as printed.
How the values were obtained:
dAtCas9-D1089A [1] = molecular target: T1, dAtCas9-D1089A (Alicyclobacillus tengchongensis, D8A,H617A,N640A,D1089A); assay: EMSA; SD 15.39; PAM CTAA; conditions: tags: 6xHis; label: 5' Cy5
T1 chain: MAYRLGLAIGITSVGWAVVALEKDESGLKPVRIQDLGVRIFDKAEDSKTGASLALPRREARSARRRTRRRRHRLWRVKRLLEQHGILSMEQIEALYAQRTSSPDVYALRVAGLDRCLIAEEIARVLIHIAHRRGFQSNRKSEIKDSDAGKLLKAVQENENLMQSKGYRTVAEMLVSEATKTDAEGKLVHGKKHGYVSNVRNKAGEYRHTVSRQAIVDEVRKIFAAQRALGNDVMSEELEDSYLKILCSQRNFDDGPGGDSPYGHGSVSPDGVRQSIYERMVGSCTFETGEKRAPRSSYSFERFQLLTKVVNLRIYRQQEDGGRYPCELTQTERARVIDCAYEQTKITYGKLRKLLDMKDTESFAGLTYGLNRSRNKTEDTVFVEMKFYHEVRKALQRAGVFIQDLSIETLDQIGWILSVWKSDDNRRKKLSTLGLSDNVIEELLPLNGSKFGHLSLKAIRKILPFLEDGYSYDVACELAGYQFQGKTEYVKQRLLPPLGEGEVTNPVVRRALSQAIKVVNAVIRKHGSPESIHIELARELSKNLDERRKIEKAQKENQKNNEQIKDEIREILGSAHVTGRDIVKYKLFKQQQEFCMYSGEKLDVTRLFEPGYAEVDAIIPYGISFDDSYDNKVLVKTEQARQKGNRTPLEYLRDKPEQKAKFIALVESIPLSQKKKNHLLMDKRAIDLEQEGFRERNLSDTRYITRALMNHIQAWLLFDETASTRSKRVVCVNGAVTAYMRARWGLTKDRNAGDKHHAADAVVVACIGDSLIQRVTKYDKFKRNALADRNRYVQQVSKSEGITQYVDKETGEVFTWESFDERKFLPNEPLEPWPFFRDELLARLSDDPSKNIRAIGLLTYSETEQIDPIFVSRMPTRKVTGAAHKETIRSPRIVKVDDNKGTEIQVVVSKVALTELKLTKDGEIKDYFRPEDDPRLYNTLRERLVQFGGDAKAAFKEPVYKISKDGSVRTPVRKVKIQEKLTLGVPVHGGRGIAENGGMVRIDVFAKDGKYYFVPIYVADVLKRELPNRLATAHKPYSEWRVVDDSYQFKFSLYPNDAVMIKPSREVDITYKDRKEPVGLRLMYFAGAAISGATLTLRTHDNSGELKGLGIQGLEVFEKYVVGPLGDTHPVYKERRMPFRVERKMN
Excerpt: (§1) A. Schematic representation of AtCas9 domain structure showing the positions of PAM-interacting (PI) mutations. BH, arginine-rich bridge helix; REC, recognition lobe; L1, L1 linker; L2, L2 linker; WED, Wedge domain; TOPO, Topoisomerase-homology domain; CTD, C-terminal domain; HNH, HNH domain; RuvC, RuvC domain; D, Aspartic acid; I, Isoleucine; S, Serine; G, Glycine; A, Alanine. B. Negative supercoil and linearized DNA of different PAM were cleaved by WT AtCas9 and two PI mutants, m4 and m5. Each PAM variant has at least two distinct spacer sequences for cleavage assays. Use Image Lab software to analyzed the percentage of cutting products and take the average value of each PAM variant for graphing. m4, D1089A; m5, D1089A S1091A G1092A. C. Sequence logo for the AtCas9 PI domain mutant m4 (D1089A) PAM as determined by linearized PAM library substrates cleavage assay. D. EMSA assay were performed with 5′ cy5-labeled oligonucleotides carrying WT PAM (CTAA, left) or MUT PAM (TATA, right), and dAtCas9 or dAtCas9-D1089A RNP complex titrating from 1.2 nM to 2.4 μM. […] E. SpCas9 RNPs hardly bind to mut PAM (GTC) dsDNA compared with wt PAM (AGG) dsDNA. KD±SD for SpCas9 to WT PAM dsDNA, 300±10.57 nM; KD±SD for SpCas9 to MUT PAM dsDNA, ˜2.495e+18 nM.
(§2) dAtCas9 and sgRNA were mixed at 1:2 molar ratio in 1×buffer16. […]

dAtCas9 [2] = molecular target: T2, dAtCas9 (Alicyclobacillus tengchongensis, D8A,H617A,N640A); assay: EMSA; SD 10.9; buffer16 with 10 mM Mg2+, 55C; PAM CTAA; conditions: tags: 6xHis; label: 5' Cy5
T2 chain: T1 chain with A1089D
Method: (§3) A. Schematic diagram of AtCas9 domain structure showing RuvC and HNH nuclease domain mutation site. BH, arginine-rich bridge helix; REC, recognition lobe; L1, linker 1; L2, linker 2; WED, Wedge domain; TOPO, Topoisomerase-homology domain; CTD, C-terminal domain; HNH, HNH domain; D, Aspartic acid; H, Histidine; N, Asparagine; A, Alanine. B. (left) Electrophoretic mobility shift assay (EMSA) were carried out by incubating AtCas9 RNP with 25 nM Cy5-labeled oligonucleotides (50 bp) in buffer16 without Mg²⁺. […] (right) Catalytically dead AtCas9 (dAtCas9, D8A H617A N640A) were used for EMSA assay in the presence of Mg²⁺ C. […] The bulge substrate details are illustrated in FIG. 10B. […] MUT PAM TATA and WT PAM CTAA was used. D. Higher binding affinity of AtCas9 RNPs towards negative supercoiled dsDNA than linear dsDNA. 1 nM cy5-labeled negative supercoil plasmid or NcoI-linearized plasmid containing PAM (CTAA) or mutant PAM (TGAC) motif were incubated with dAtCas9 RNP complex at indicated dosage. ProK, Proteinase K.
(§4) dAtCas9 and sgRNA were mixed at 1:2 molar ratio in 1×buffer16. After incubation at room temperature for 10 minutes, the RNP mixture were diluted to various concentration ranging from […] to 0.6 nM and 4 nM cy5-labeled oligonucleotides was added. Binding reactions were carried out at 55° C. for 30 minutes. Samples were resolved on 4% native TBE-PAGE for oligonucleotides. […]

dAtCas9 [3] = molecular target: T2, dAtCas9; assay: EMSA; SD 12.05; second measurement, PAM CTAA; guide 21a sgRNA-At; conditions: tags: 6xHis; label: 5' Cy5
Excerpt: as §1, §2

dAtCas9 [4] = molecular target: T2, dAtCas9; assay: EMSA; SD 7.1; second measurement, mutated PAM TATA; conditions: tags: 6xHis; label: 5' Cy5
Excerpt: as §1, §2

dAtCas9-D1089A [5] = molecular target: T1, dAtCas9-D1089A; assay: EMSA; SD 13.6; PAM TATA; conditions: tags: 6xHis; label: 5' Cy5
Excerpt: as §1, §2

dAtCas9 [6] = molecular target: T2, dAtCas9; assay: EMSA; SD 4.5; mutated PAM TATA; buffer16, 55C; conditions: tags: 6xHis; label: 5' Cy5
Method: as §3, §4

dAtCas9 [7] = molecular target: T2, dAtCas9; assay: EMSA; SD 12.2; mutated PAM TATA with 1-2 bulge; conditions: tags: 6xHis; label: 5' Cy5; 2-base bulge at PAM-proximal positions 1-2
Method: as §3, §4

dAtCas9 [8] = molecular target: T2, dAtCas9; assay: EMSA; PAM CTAA; conditions: tags: 6xHis; label: Cy5; NcoI-linearized plasmid
Method: as §3, §4

B1: 21a sgRNA-At full length ; 50 bp 21a WT PAM (CTAA) (ssRNA ; dsDNA)
RNA: AAAUGCCUUCGAUUUUACCCCAACGAAUAAGUCAUAGUUCCCUCACAAGCCUCGAUGUGGUAUGAUGAAAAUCAUACCACAUCAAGGCUUGCGAGGUUGCUAUGAUAAGGCAACAGGCCGCAAAGCACUGACCCGCAUUCCAAUGAAUGCGGGUCAUCUACUUUUU
DNA 1: AAATGCCTTCGATTTTACCCCAACGAATAACAGGCTAAAATATGGACCTG
DNA 2: CAGGTCCATATTTTAGCCTGTTATTCGTTGGGGTAAAATCGAAGGCATTT
- Kd (dAtCas9-D1089A [1]): 44.4 nM
- Kd (dAtCas9 [2]): 22.4 nM
- Kd (dAtCas9 [3]): 26.2 nM

B2: 21a sgRNA-At full length ; 50 bp 21a mutated PAM (TATA), 0 bulge (ssRNA ; dsDNA)
RNA: B1 RNA
DNA 1: AAATGCCTTCGATTTTACCCCAACGAATAAGTCATATAAATATGGACCTG
DNA 2: CAGGTCCATATTTATATGACTTATTCGTTGGGGTAAAATCGAAGGCATTT
- Kd (dAtCas9 [4]): 109 nM
- Kd (dAtCas9-D1089A [5]): 27.1 nM
- Kd (dAtCas9 [6]): 248 nM

B3: 21a sgRNA-At full length ; 50 bp 21a mutated PAM, 1-2 bulge (ssRNA ; dsDNA)
RNA: B1 RNA
DNA 1: B2 DNA 1 with A29T, A30T
DNA 2: B2 DNA 2
- Kd (dAtCas9 [7]): 29.5 nM

B4: 27m sgRNA-At ; 27m WT PAM (CTAA) mini plasmid, linear (ssRNA ; dsDNA)
RNA: GAAGAUCCUUUGAUCUUUUCUACGGGUCAUAGUUCCCUCACAAGCCUCGAUGUGGUAUGAUGAAAAUCAUACCACAUCAAGGCUUGCGAGGUUGCUAUGAUAAGGCAACAGGCCGCAAAGCACUGACCCGCAUUCCAAUGAAUGCGGGUCAUCUACUUUUU
DNA 1: GAAGATCCTTTGATCTTTTCTACGGGGTCCTAA
DNA 2: TTAGGACCCCGTAGAAAAGATCAAAGGATCTTC
- binding result (dAtCas9 [8]): binds

— patent US20250346878, “EDITING OF DOUBLE-STRANDED DNA WITH RELAXED PAM REQUIREMENT” (WUHAN UNIVERSITY, published 2025)
